Reference: article PMC6396373, “The herpesviral antagonist m152 reveals differential activation of STING‐dependent IRF and NF‐κB signaling and STING's dual role during MCMV infection” (The EMBO Journal, 2019)

Biological target: the molecule itself
Test: non-reducing SDS-PAGE with immunoblot; iMEF stably expressing ev or m152-V5, stimulated with 10 μg/ml ISD (also with Brefeldin A); lysis in 25 mM Tris-HCl pH 7.6, 150 mM NaCl, 1% IGEPAL CA-630, 1% sodium deoxycholate, 0.1% SDS; anti-STING blot for STING dimers

B1: endogenous murine STING (natural protein)
chain: MPYSNLHPAIPRPRGHRSKYVALIFLVASLMILWVAKDPPNHTLKYLALHLASHELGLLLKNLCCLAEELCHVQSRYQGSYWKAVRACLGCPIHCMAMILLSSYFYFLQNTADIYLSWMFGLLVLYKSLSMLLGLQSLTPAEVSAVCEEKKLNVAHGLAWSYYIGYLRLILPGLQARIRMFNQLHNNMLSGAGSRRLYILFPLDCGVPDNLSVVDPNIRFRDMLPQQNIDRAGIKNRVYSNSVYEILENGQPAGVCILEYATPLQTLFAMSQDAKAGFSREDRLEQAKLFCRTLEEILEDVPESRNNCRLIVYQEPTDGNSFSLSQEVLRHIRQEEKEEVTMNAPMTSVAPPPSVLSQEPRLLISGMDQPLPLRTDLI
notes: stimulator of interferon genes (STING), endogenous in immortalized B6J mouse embryonic fibroblasts; Dimers seen on non-reducing SDS-PAGE after ISD stimulation; also called Endogenous STING; source: endogenous, iMEF lysate
stoichiometry N: 2
